Laboratory results from PMC8122247, “Rational Design of Resveratrol O-methyltransferase for the Production of Pinostilbene” (International Journal of Molecular Sciences, 2021).
Residue numbers refer to the chain shown, from its start. Names and notes keep the numbering of the source.

Target: the molecule itself
Assay: SEC; Superdex 75 10/300 GL, 50 mM Tris-HCl pH 7.5, flow 0.5 mL/min; protein at 2 µg/µL, 150 to 300 µL; column calibrated with LMW Gel Filtration kit

B1: VvROMT variant W20A (enzyme, Vitis vinifera, UniProt B6VJS4 1-357, looked up)
chain: MDLANGVISAELLHAQAHVANHIFNFIKSMSLKCAIQLGIPDIIHNHGKPMTLPELVAKLPVHPKRSQCVYRLMRILVHSGFLAAQRVQQGKEEEGYVLTDASRLLLMDDSLSIRPLVLAMLDPILTKPWHYLSAWFQNDDPTPFHTAYERSFWDYAGHEPQLNNSFNEAMASDARLLTSVLLKEGQGVFAGLNSLVDVGGGTGKVAKAIANAFPHLNCTVLDLSHVVAGLQGSKNLNYFAGDMFEAIPPADAILLKWILHDWSNEECVKILKRCREAIPSKENGGKVIIIDMIMMKNQGDYKSTETQLFFDMTMMIFAPGRERDENEWEKLFLDAGFSHYKITPILGLRSLIEVYP
notes: resveratrol O-methyltransferase (VvROMT), Vitis vinifera, GenBank FM178870, with W20A; made by Gibson Assembly on pET25-GB1-ROMT; source: E. coli BL21 (DE3), purified (IMAC HisTrap FF, TEV cleavage, second IMAC); not shown: His tag (on GB1), N-terminal, cleaved; GB1, N-terminal, cleaved
  stoichiometry N: 2

B2: VvROMT variant F24A (enzyme, Vitis vinifera, UniProt B6VJS4 1-357, looked up)
chain: B1 chain with A20W, F24A
notes: resveratrol O-methyltransferase (VvROMT), Vitis vinifera, GenBank FM178870, with F24A; made by Gibson Assembly on pET25-GB1-ROMT; source: E. coli BL21 (DE3), purified (IMAC HisTrap FF, TEV cleavage, second IMAC); not shown: His tag (on GB1), N-terminal, cleaved; GB1, N-terminal, cleaved
  stoichiometry N: 2
